Assay results reported in patent US20220073630A1 (Hoffmann-La Roche, published 2022).

T1: murine fibroblast activation protein (FAP) (murine, UniProt P97321 1-761)
T1 construct: whole, on cells; also called mFAP; murine FAP
T1 sequence: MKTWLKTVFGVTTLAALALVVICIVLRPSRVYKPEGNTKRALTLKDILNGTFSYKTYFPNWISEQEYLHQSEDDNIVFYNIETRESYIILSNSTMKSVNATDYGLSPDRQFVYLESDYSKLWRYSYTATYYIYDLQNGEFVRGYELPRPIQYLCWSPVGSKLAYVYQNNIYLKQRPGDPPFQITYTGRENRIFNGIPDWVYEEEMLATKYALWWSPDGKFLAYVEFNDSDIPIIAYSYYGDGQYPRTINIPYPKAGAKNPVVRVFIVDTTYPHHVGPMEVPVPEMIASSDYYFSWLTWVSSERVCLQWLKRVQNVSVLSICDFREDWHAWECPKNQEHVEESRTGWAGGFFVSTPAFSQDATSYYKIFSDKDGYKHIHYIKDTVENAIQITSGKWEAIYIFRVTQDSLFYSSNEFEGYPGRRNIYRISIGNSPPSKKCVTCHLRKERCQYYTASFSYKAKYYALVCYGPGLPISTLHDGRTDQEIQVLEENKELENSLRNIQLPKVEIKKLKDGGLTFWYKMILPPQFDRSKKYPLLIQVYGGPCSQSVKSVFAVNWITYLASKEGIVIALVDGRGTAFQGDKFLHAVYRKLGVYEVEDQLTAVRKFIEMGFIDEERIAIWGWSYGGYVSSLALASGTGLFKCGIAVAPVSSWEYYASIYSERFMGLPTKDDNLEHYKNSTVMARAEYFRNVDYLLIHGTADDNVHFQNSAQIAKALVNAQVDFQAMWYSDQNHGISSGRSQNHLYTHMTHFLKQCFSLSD


Target: T1, murine fibroblast activation protein …
Experiment: flow cytometry on target cells (data not shown)

Row | Binder | binding result
1 | m38-pMHC-I-anti-FAP-IgG (other, also called mCMV m38-pMHC-I-anti-FAP-IgG; pMHC-I-IgG) heavy 1: SSPPMFRVGCGGSGGGGSGGGGSIQKTPQIQVYSRHPPENGKPNILNCYVTQFHPPHIEIQMLKNGKKIPKVEMSDMSFSKDWSFYILAHTEFTPTETDTYACRVKHASMAEPKTVYWDRDMGGGGSGGGGSGGGGSGGGGSGPHSLRYFVTAVSRPGLGEPRYMEVGYVDDTEFVRFDSDAENPRYEPRARWMEQEGPEYWERETQKAKGNEQSFRVDLRTLLGCYNQSKGGSHTIQVISGCEVGSDGRLLRGYQQYAYDGCDYIALNEDLKTWTAADMAALITKHKWEQAGEAERLRAYLEGTCVEWLRRYLKNGNATLLRTDSPKAHVTHHSRPEDKVTLRCWALGFYPADITLTWQLNGEELIQDMELVETRPAGDGTFQKWASVVVPLGKEQYYTCHVYHQGLPEPLTLRWGSEVQLLESGGGLVQPGGSLRLSCAASGFTFSSHAMSWVRQAPGKGLEWVSAIWASGEQYYADSVKGRFTISRDNSKNTLYLQMNSLRAEDTAVYYCAKGWLGNFDYWGQGTLVTVSSAKTTAPSVYPLAPVCGGTTGSSVTLGCLVKGYFPEPVTLTWNSGSLSSGVHTFPALLQSGLYTLSSSVTVTSNTWPSQTITCNVAHPASSTKVDKKIEPRVPITQNPCPPLKECPPCAAPDAAGGPSVFIFPPKIKDVLMISLSPMVTCVVVDVSEDAPDVQISWFVNNVEVHTAQTQTHREDYNSTLRVVSALPIQHQDWMSGKEFKCKVNNRALGSPIEKTISKPRGPVRAPQVCVLPPPAEEMTKKEFSLSCAITGFLPAEIAVDWTSNGRTEQNYKNTATVLDSDGSYFMVSKLRVQKSTWERGSLFACSVVHEGLHNHLTTKTISRSLGK heavy 2: EVQLLESGGGLVQPGGSLRLSCAASGFTFSSHAMSWVRQAPGKGLEWVSAIWASGEQYYADSVKGRFTISRDNSKNTLYLQMNSLRAEDTAVYYCAKGWLGNFDYWGQGTLVTVSSAKTTAPSVYPLAPVCGGTTGSSVTLGCLVKGYFPEPVTLTWNSGSLSSGVHTFPALLQSGLYTLSSSVTVTSNTWPSQTITCNVAHPASSTKVDKKIEPRVPITQNPCPPLKECPPCAAPDAAGGPSVFIFPPKIKDVLMISLSPMVTCVVVDVSEDAPDVQISWFVNNVEVHTAQTQTHREDYNSTLRVVSALPIQHQDWMSGKEFKCKVNNRALGSPIEKTISKPRGPVRAPQVYVLPPCAEEMTKKEFSLWCMITGFLPAEIAVDWTSNGRTEQNYKNTATVLDSDGSYFMYSKLRVQKSTWERGSLFACSVVHEGLHNRFTTKTISRSLGK light: EIVLTQSPGTLSLSPGERATLSCRASQSVSRSYLAWYQQKPGQAPRLLIIGASTRATGIPDRFSGSGSGTDFTLTISRLEPEDFAVYYCQQGQVIPPTFGQGTKVEIKRADAAPTVSIFPPSSEQLTSGGASVVCFLNNFYPKDINVKWKIDGSERQNGVLNSWTDQDSKDSTYSMSSTLTLTKDEYERHNSYTCEATHKTSTSPIVKSFNRNEC | binds
2 | IE3-pMHC-I-anti-FAP-IgG (other, Same build as m38-pMHC-I-anti-FAP-IgG, with the control peptide IE3; also called mCMV IE3-pMHC-I-anti-FAP-IgG; control fusion protein) heavy 1: RALEYKNLGCGGSGGGGSGGGGSIQKTPQIQVYSRHPPENGKPNILNCYVTQFHPPHIEIQMLKNGKKIPKVEMSDMSFSKDWSFYILAHTEFTPTETDTYACRVKHASMAEPKTVYWDRDMGGGGSGGGGSGGGGSGGGGSGPHSLRYFVTAVSRPGLGEPRYMEVGYVDDTEFVRFDSDAENPRYEPRARWMEQEGPEYWERETQKAKGNEQSFRVDLRTLLGCYNQSKGGSHTIQVISGCEVGSDGRLLRGYQQYAYDGCDYIALNEDLKTWTAADMAALITKHKWEQAGEAERLRAYLEGTCVEWLRRYLKNGNATLLRTDSPKAHVTHHSRPEDKVTLRCWALGFYPADITLTWQLNGEELIQDMELVETRPAGDGTFQKWASVVVPLGKEQYYTCHVYHQGLPEPLTLRWGSEVQLLESGGGLVQPGGSLRLSCAASGFTFSSHAMSWVRQAPGKGLEWVSAIWASGEQYYADSVKGRFTISRDNSKNTLYLQMNSLRAEDTAVYYCAKGWLGNFDYWGQGTLVTVSSAKTTAPSVYPLAPVCGGTTGSSVTLGCLVKGYFPEPVTLTWNSGSLSSGVHTFPALLQSGLYTLSSSVTVTSNTWPSQTITCNVAHPASSTKVDKKIEPRVPITQNPCPPLKECPPCAAPDAAGGPSVFIFPPKIKDVLMISLSPMVTCVVVDVSEDAPDVQISWFVNNVEVHTAQTQTHREDYNSTLRVVSALPIQHQDWMSGKEFKCKVNNRALGSPIEKTISKPRGPVRAPQVCVLPPPAEEMTKKEFSLSCAITGFLPAEIAVDWTSNGRTEQNYKNTATVLDSDGSYFMVSKLRVQKSTWERGSLFACSVVHEGLHNHLTTKTISRSLGK heavy 2: EVQLLESGGGLVQPGGSLRLSCAASGFTFSSHAMSWVRQAPGKGLEWVSAIWASGEQYYADSVKGRFTISRDNSKNTLYLQMNSLRAEDTAVYYCAKGWLGNFDYWGQGTLVTVSSAKTTAPSVYPLAPVCGGTTGSSVTLGCLVKGYFPEPVTLTWNSGSLSSGVHTFPALLQSGLYTLSSSVTVTSNTWPSQTITCNVAHPASSTKVDKKIEPRVPITQNPCPPLKECPPCAAPDAAGGPSVFIFPPKIKDVLMISLSPMVTCVVVDVSEDAPDVQISWFVNNVEVHTAQTQTHREDYNSTLRVVSALPIQHQDWMSGKEFKCKVNNRALGSPIEKTISKPRGPVRAPQVYVLPPCAEEMTKKEFSLWCMITGFLPAEIAVDWTSNGRTEQNYKNTATVLDSDGSYFMYSKLRVQKSTWERGSLFACSVVHEGLHNRFTTKTISRSLGK light: EIVLTQSPGTLSLSPGERATLSCRASQSVSRSYLAWYQQKPGQAPRLLIIGASTRATGIPDRFSGSGSGTDFTLTISRLEPEDFAVYYCQQGQVIPPTFGQGTKVEIKRADAAPTVSIFPPSSEQLTSGGASVVCFLNNFYPKDINVKWKIDGSERQNGVLNSWTDQDSKDSTYSMSSTLTLTKDEYERHNSYTCEATHKTSTSPIVKSFNRNEC | binds
